Data taken from patent US9523084B2, “Phosphodeoxyribosyl transferase mutant enzymes and uses thereof” (Centre National De La Recherche Scientifique, priority 2012, dated 2016).

Experiments:
[1] = substrate: Nc1ccn([C@H]2C[C@H](O)[C@@H](COP(=O)(O)O)O2)c(=O)n1; assay: Kinetic parameters of PDT variants, dCMP + A ⇄ dAMP + C; format: biochemical, Lactobacillus leichmannii; conditions: adenine as acceptor, fixed, 37.0 °C
Protocol: The standard assay (“first protocol for enzyme assay”) for the different NDTs consisted of 5-15 μg of NDT in 50 mM MES buffer pH 6.0, dNxP (dNMP, or dNDP or dNTP) 3 mM and a base 1 mM in a total volume of 50 μL. Assays were incubated for 60 min at 37° C. The products of the reactions were analyzed each 7 min by Rapid resolution high performance liquid chromatography using a reverse-phase column (ZORBAX Eclipse XDB-C18 2.1*50 mm 1.8 μM) with a flow rate of 0.25 ml/min and a linear gradient of 1-12% CH3CN (2-25% CH3CN or 1-90% CH3CN) in 20 mM triethylammonium acetate, pH 7.5, buffer for 7 min. The low resolution mass spectra of the newly synthesized deoxyribonucleotides were obtained on an Agilent 1200 series LC/MS 6120 quadrupole system using an atmospheric electrospray ionization system.
This hypothesis was confirmed by monitoring the specific activity, in the presence of dCDP or dCTP as donor and adenine as acceptor (see table 2 above). The kinetic parameters were determined for the best variants with dCMP, dCDP and dCTP as substrates, at a concentration of A being fixed (see table 3 below).

[2] = Catalytic activity of PDTT2 to PDTT7, dATP formed (HPLC); format: biochemical; conditions: dCTP + A ⇄ dATP + C; 2 mM dCTP, 1 mM Adenine, 37° C., MES 50 mM pH6.0
Protocol: In specific cases, an alternative protocol was used to perform the enzyme assay. In this second protocol, the dNxP (dNMP, or dNDP or dNTP) concentration was of only 2 mM, instead of 3 mM. All of the other conditions were identical to those of the first protocol.
The catalytic activity of the mutant enzymes PDTT2, PDTT3, PDTT3b, PDTT4, PDTT5, PDTT6, PDTT7 has been compared. Briefly, a sufficient amount of enzyme mutant necessary to obtain a linear reaction over a period of one hour at 37° C. has been mixed in 2 mM dCTP and 1 mM Adenine in a final volume of 50 μL of MES buffer 50 mM pH6.0. Assays were incubated for 60 min at 37° C. The products of the reactions were analyzed each 7 min by Rapid resolution high performance liquid chromatography using a reverse-phase column (ZORBAX Eclipse XDB-C18 2.1*50 mm […]) with a flow rate of 0.25 ml/min and a linear gradient of 1-12% CH3CN (2-25% CH3CN or 1-90% CH3CN) in 20 mM triethylammonium acetate, pH 7.5, buffer for 7 min.

B1: Lactobacillus leichmannii nucleoside deoxyribosyltransferase (NDT, SEQ ID NO:1) variant PDTM3, R13 S92 (F13R/D92S), SEQ ID NO:5 (Lactobacillus leichmannii; … (protein)
chain: MPKKTIYFGAGWRTDRQNKAYKEAMEALKENPTIDLENSYVPLDNQYKGIRVDEHPEYLHDKVWATATYNNDLNGIKTNDIMLGVYIPDEESVGLGMELGYALSQGKYVLLVIPDEDYGKPINLMSWGVSDNVIKMSQLKDFNFNKPRFDFYEGAVY
notes: homohexamer (108 kDa)
[1]; other: PDTM3
  Km: 22 mM
  kcat: 0.3 s⁻¹

B2: Lactobacillus leichmannii nucleoside deoxyribosyltransferase (NDT, SEQ ID NO:1) variant PDTM4, R13 S92 S123 (F13R/D92S/N123S), SEQ ID NO:6 (Lactobacillus … (protein)
chain: MPKKTIYFGAGWRTDRQNKAYKEAMEALKENPTIDLENSYVPLDNQYKGIRVDEHPEYLHDKVWATATYNNDLNGIKTNDIMLGVYIPDEESVGLGMELGYALSQGKYVLLVIPDEDYGKPISLMSWGVSDNVIKMSQLKDFNFNKPRFDFYEGAVY
notes: homohexamer (108 kDa)
[1]; other: PDTM4
  Km: 11 mM
  kcat: 2.1 s⁻¹

B3: Lactobacillus leichmannii nucleoside deoxyribosyltransferase (NDT, SEQ ID NO:1) variant PDTM5, Q13 S92 S123 (F13Q/D92S/N123S), SEQ ID NO:7 (Lactobacillus … (protein)
chain: MPKKTIYFGAGWQTDRQNKAYKEAMEALKENPTIDLENSYVPLDNQYKGIRVDEHPEYLHDKVWATATYNNDLNGIKTNDIMLGVYIPDEESVGLGMELGYALSQGKYVLLVIPDEDYGKPISLMSWGVSDNVIKMSQLKDFNFNKPRFDFYEGAVY
notes: homohexamer (108 kDa)
[1]; other: PDTM5
  Km: 12 mM
  kcat: 1.99 s⁻¹

B4: Lactobacillus leichmannii nucleoside deoxyribosyltransferase (NDT, SEQ ID NO:1) variant PDTT0, R13 G92 T93 S123 (F13R/D92G/V93T/N123S), SEQ ID NO:8 … (protein)
chain: MPKKTIYFGAGWRTDRQNKAYKEAMEALKENPTIDLENSYVPLDNQYKGIRVDEHPEYLHDKVWATATYNNDLNGIKTNDIMLGVYIPDEEGTGLGMELGYALSQGKYVLLVIPDEDYGKPISLMSWGVSDNVIKMSQLKDFNFNKPRFDFYEGAVY
notes: homohexamer (108 kDa)
[1]; other: PDTT0
  Km: 9.2 mM
  kcat: 0.45 s⁻¹

B5: PDTT3: PDTT2 mutant with Proline at position 93 and Lysine at position 157, SEQ ID NO:38 (protein)
chain: MPKKTIYFGAGWRTDRQNKAYKEAMEALKENPTIDLENSYVPLDNQYKGIRVDEHPEYLHDKVWATATYNNDLNGIKTNDIMLGVYIPDEQGPGLGMELGYALSQGKYVLLVIPDEDYGKPISLMSWGVSDNVIKMSQLKDFNFNKPRFDFYEGAVK
modifications: amino acid sequence of PDTT3 (G92/S123/R13/P93/K157/Q91)
[2]
  Catalytic activity (nmol of dATP formed/min/mg of enzyme protein): 2.7 nmol of dATP formed/min/mg of enzyme protein

B6: PDTT3b: PDTT2 mutant with Glycine (G) at position 93 and Lysine at position 157, SEQ ID NO:39 (protein)
chain: MPKKTIYFGAGWRTDRQNKAYKEAMEALKENPTIDLENSYVPLDNQYKGIRVDEHPEYLHDKVWATATYNNDLNGIKTNDIMLGVYIPDEQGGGLGMELGYALSQGKYVLLVIPDEDYGKPISLMSWGVSDNVIKMSQLKDFNFNKPRFDFYEGAVK
modifications: amino acid sequence of PDTT3b (G92/S123/R13/G93/K157/Q91)
[2]
  Catalytic activity (nmol of dATP formed/min/mg of enzyme protein): 6.5 nmol of dATP formed/min/mg of enzyme protein

B7: PDTT4: PDTT2 mutant with Serine at position 93 and Lysine at position 157, SEQ ID NO:40 (protein)
chain: MPKKTIYFGAGWRTDRQNKAYKEAMEALKENPTIDLENSYVPLDNQYKGIRVDEHPEYLHDKVWATATYNNDLNGIKTNDIMLGVYIPDEQGSGLGMELGYALSQGKYVLLVIPDEDYGKPISLMSWGVSDNVIKMSQLKDFNFNKPRFDFYEGAVK
modifications: amino acid sequence of PDTT4 (G92/S123/R13/S93/K157/Q91)
[2]
  Catalytic activity (nmol of dATP formed/min/mg of enzyme protein): 10.4 nmol of dATP formed/min/mg of enzyme protein

B8: PDTT5: PDTT3 mutant with Arginine at position 157, SEQ ID NO:41 (protein)
chain: MPKKTIYFGAGWRTDRQNKAYKEAMEALKENPTIDLENSYVPLDNQYKGIRVDEHPEYLHDKVWATATYNNDLNGIKTNDIMLGVYIPDEQGPGLGMELGYALSQGKYVLLVIPDEDYGKPISLMSWGVSDNVIKMSQLKDFNFNKPRFDFYEGAVR
modifications: amino acid sequence of PDTT5 (G92/S123/R13/P93/R157/Q91)
[2]
  Catalytic activity (nmol of dATP formed/min/mg of enzyme protein): 27 nmol of dATP formed/min/mg of enzyme protein
